Experimental data published in patent US20150322414A1 (UNITED KINGDOM RESEARCH AND INNOVATION, published 2015).

Key:
[1] = target: Wild-type human Tie2 ectodomain (residues 1-442) surface expression construct on DT40 cells (human) (UniProt P09619); experiment: flow cytometry, ligand titrated on DT40 cells displaying wild-type Tie2 ectodomain; apparent Kd
[2] = target: T1, Angiopoietin-2 (human, UniProt O15123 19-496, limits assumed); experiment: SPR (ForteBio Octet), ectodomain-Fc immobilised; wild-type ectodomain
T1 construct: also called Ang2; biotinylated Ang2
T1 sequence (looked up): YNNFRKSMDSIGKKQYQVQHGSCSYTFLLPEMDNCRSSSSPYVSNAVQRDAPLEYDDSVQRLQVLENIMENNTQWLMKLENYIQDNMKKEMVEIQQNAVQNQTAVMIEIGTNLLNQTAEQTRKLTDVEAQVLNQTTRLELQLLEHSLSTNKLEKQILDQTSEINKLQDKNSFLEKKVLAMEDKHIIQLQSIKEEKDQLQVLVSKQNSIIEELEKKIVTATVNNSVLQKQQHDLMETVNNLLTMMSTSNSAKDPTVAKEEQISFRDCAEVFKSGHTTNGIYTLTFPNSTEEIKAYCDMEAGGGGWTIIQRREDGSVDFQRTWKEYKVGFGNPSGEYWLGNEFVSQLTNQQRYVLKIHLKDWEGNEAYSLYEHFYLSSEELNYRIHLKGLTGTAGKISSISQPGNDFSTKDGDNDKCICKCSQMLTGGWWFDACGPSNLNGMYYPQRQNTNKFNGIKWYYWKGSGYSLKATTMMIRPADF
Experimental: (§1) Surface plasmon resonance was performed using a ForteBio Octet instrument (Pall Life Sciences). Fusion proteins were immobilised at 5 μg/ml on sensors and kinetic binding assays perfoinied as detailed by the manufacturer.

[3] = target: T1, Angiopoietin-2; experiment: SPR as named in the filing, panel headed 'Binding of R3 and R3 I161G binding to Ang2', concentrations not given
Experimental: as §1

[4] = target: T2, Angiopoietin-1 (human, UniProt Q15389 20-498, limits assumed); experiment: SPR as named in the filing, panel headed 'Binding of Wt and R3 I161G mutant to Ang1', concentrations not given
T2 construct: also called Ang1; His6-tagged Ang1
T2 sequence (looked up): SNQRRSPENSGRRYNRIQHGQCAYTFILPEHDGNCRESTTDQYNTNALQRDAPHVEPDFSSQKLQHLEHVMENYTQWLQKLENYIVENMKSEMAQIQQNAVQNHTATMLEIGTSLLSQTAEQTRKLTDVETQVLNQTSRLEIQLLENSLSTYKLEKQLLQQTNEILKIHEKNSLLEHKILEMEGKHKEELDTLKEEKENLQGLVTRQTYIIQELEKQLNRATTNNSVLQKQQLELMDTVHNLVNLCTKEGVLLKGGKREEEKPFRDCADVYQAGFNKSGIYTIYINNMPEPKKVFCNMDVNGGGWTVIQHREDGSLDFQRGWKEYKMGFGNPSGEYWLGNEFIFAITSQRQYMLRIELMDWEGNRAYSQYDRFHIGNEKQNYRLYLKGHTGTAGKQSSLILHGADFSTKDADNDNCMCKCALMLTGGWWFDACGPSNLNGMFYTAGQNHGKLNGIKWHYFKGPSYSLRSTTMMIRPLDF
Experimental: as §1

[5] = target: T2, Angiopoietin-1; experiment: SPR as named in the filing (ForteBio Octet), ectodomain-Fc immobilised on the sensor, Ang1 in solution, concentrations not given
Experimental: as §1

[6] = target: T1, Angiopoietin-2; experiment: SPR (ForteBio Octet), ectodomain-Fc immobilised; evolved (R3) ectodomain
Experimental: as §1

Sequence of Wild-type human Tie2 ectodomain (residues 1-442) surface expression construct on DT40 cells (human) (P09619 514-562 limits assumed, form in doubt): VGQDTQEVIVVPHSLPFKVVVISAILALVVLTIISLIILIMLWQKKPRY

In the case of “Angiopoietin-1 (from UniProt Q15389 20-498) (ligand)”, the Kd [1] is reported as 0.7 nM.

B1: Wild-type Tie2 ectodomain (1-442)-Fc fusion protein (Fc fusion)
chain (part 1 of 2): AMDLILINSLPLVSDAETSLTCIASGWRPHEPITIGRDFEALMNQHQDPLEVTQDVTREWAKKVVWKREKASKINGAYFCEGRVRGEAIRIRTMKMRQQASFLPATLTMTVDKGDNVNISFKKVLIKEEDAVIYKNGSFIHSVPRHEVPDILEVHLPHAQPQDAGVYSARYIGGNLFTSAFTRLIVRRCEAQKWGPECNHLCTACMNNGVCHEDTGECICPPGFMGRTCEKACELHTFGRTCKERCSGQEGCKSYVFCLPDPYGCSCATGWKGLQCNEACHPGFYGPDCKLRCSCNNGEMCDRFQGCLCSPGWQGLQCEREGIQRMTPKIVDLPDHIEVNSGKFNPICKASGWPLPTNEEMTLVKPDGTVLHPKDFNHTDHFSVAIFTIHRILPPDSGVWVCSVNTVAGMVEKPFNISVK
chain (part 2 of 2): HHHHHH
notes: Secreted from HEK293 cells, about 80 kDa, purified on Ni-NTA; also called wild-type ectodomain; Wt; not shown: human Fc tag
B1 showed a Kd [2] of 4.1 nM.

B2: R3 I161G mutant Tie2 ectodomain (Glycine at 161, deleted at R167 and H168) (Fc fusion)
chain: AMDLILINSLPLVSDAETSLTCIASGWRPHEPITIGRDFEALMNQHQDPLEVTQDVTREWAKKVVWKREKASKINGAYFCEGRVRGEAIRIRTMKMRQQASFLPATLTMTVDKGDNVNISFKKVLIKEEDAVIYKNGSGIHSVPEVPDILEVHLPHAQPQDAGVYSARYIGGNLFTSAFTRLIVRRCEAQKWGPECNHLCTACMNNGVCHEDTGECICPPGFMGRTCEKACELHTFGRTCKERCSGQEGCKSYVFCLPDPYGCSCATGWKGLQCNEACHPGFYGPDCKLRCSCNNGEMCDRFQGCLCSPGWQGLQCEREGIQRMTPKIVDLPDHIEVNSGKFNPICKASGWPLPTNEEMTLVKPDGTVLHPKDFNHTDHFSVAIFTIHRILPPDSGVWVCSVNTVAGMVEKPFNISVK
notes: also called new mutant; improved Ang2 ligand-trap; not shown: the other soluble ectodomains carried a human Fc tag and His6
B2: binds [3]; no binding [4].

B3: Evolved (R3) Tie2 ectodomain-Fc fusion protein (F161I, ΔR167, ΔH168) (Fc fusion)
chain (part 1 of 2): AMDLILINSLPLVSDAETSLTCIASGWRPHEPITIGRDFEALMNQHQDPLEVTQDVTREWAKKVVWKREKASKINGAYFCEGRVRGEAIRIRTMKMRQQASFLPATLTMTVDKGDNVNISFKKVLIKEEDAVIYKNGSIIHSVPEVPDILEVHLPHAQPQDAGVYSARYIGGNLFTSAFTRLIVRRCEAQKWGPECNHLCTACMNNGVCHEDTGECICPPGFMGRTCEKACELHTFGRTCKERCSGQEGCKSYVFCLPDPYGCSCATGWKGLQCNEACHPGFYGPDCKLRCSCNNGEMCDRFQGCLCSPGWQGLQCEREGIQRMTPKIVDLPDHIEVNSGKFNPICKASGWPLPTNEEMTLVKPDGTVLHPKDFNHTDHFSVAIFTIHRILPPDSGVWVCSVNTVAGMVEKPFNISVK
chain (part 2 of 2): HHHHHH
notes: also called R3 ectodomain; evolved ectodomain; not shown: human Fc tag
For B3, the binding result [5] was “no binding” and the Kd [6] was 2.4 nM.
